IntAct's records for PubMed 20890305

Biological target: MAP3K11 (UniProt Q16584)
Sequence (Q16584 whole entry, looked up): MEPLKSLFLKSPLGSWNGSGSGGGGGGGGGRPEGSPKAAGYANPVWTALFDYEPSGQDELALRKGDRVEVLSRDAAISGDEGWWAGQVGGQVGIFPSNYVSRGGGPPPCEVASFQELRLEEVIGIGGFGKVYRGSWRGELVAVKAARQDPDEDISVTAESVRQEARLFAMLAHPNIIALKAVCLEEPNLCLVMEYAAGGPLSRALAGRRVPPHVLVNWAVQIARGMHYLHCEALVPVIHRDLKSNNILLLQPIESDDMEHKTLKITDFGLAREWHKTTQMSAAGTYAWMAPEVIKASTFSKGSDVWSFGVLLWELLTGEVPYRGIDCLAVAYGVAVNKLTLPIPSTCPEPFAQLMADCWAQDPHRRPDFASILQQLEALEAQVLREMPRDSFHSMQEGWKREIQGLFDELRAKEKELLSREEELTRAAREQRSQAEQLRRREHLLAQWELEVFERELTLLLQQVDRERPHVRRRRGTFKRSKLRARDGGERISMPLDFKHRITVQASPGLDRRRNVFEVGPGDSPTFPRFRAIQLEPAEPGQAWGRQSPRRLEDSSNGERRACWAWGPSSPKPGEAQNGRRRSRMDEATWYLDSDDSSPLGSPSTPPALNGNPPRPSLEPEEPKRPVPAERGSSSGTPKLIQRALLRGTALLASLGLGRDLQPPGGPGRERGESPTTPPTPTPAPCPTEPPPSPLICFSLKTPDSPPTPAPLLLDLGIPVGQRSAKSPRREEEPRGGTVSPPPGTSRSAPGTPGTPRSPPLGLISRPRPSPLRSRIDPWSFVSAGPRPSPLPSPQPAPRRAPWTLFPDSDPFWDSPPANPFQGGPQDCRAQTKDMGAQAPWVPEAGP

Cell division control protein 42 homolog (Homo sapiens), P60953 T17N, sequence (P60953 whole entry T17N): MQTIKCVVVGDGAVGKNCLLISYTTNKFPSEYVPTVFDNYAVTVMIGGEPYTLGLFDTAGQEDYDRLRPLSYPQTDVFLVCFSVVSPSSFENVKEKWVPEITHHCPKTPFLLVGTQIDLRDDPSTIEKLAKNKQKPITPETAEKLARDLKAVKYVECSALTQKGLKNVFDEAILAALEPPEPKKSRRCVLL
Cell division control protein 42 homolog (Homo sapiens), P60953 G12V, sequence (P60953 whole entry G12V): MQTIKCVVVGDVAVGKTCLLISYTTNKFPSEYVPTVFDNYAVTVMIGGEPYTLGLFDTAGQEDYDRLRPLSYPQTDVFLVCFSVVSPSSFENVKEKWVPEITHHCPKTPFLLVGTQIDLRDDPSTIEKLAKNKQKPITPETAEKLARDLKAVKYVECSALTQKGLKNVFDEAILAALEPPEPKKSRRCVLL

| effect of a mutation on the interaction | Substance |
| --- | --- |
| decreasing interaction | Cell division control protein 42 homolog (Homo sapiens), P60953 G12V |
| disrupting interaction | Cell division control protein 42 homolog (Homo sapiens), P60953 T17N |
